For 1 substance, IC50, inhibition of IL-5 driven proliferation of TF-1.6G4 cells (Mean, pM) results are on record in patent US20180186873A1.

Experiment [1] addresses cynomolgus monkey IL-5 (cynomolgus monkey). Kind of experiment: cell-based or functional assay.
Experiment [2] addresses recombinant human IL-5 (human) (UniProt P05113). Nature of the experiment: cell-based or functional assay.

Consider Mepolizumab (antibody), for which the IC50, inhibition of IL-5 driven proliferation of TF-1.6G4 cells (Mean, pM) was determined as 584 pM in experiment [1] and 534 pM in experiment [2].
